Measured values as given in IntAct's records for PubMed 35512704.

B1: Speckle-type POZ protein (Homo sapiens), O43791 (parent)
chain: MSRVPSPPPPAEMSSGPVAESWCYTQIKVVKFSYMWTINNFSFCREEMGEVIKSSTFSSGANDKLKWCLRVNPKGLDEESKDYLSLYLLLVSCPKSEVRAKFKFSILNAKGEETKAMESQRAYRFVQGKDWGFKKFIRRDFLLDEANGLLPDDKLTLFCEVSVVQDSVNISGQNTMNMVKVPECRLADELGGLWENSRFTDCCLCVAGQEFQAHKAILAARSPVFSAMFEHEMEESKKNRVEINDVEPEVFKEMMCFIYTGKAPNLDKMADDLLAAADKYALERLKVMCEDALCSNLSVENAAEILILADLHSADQLKTQAVDFINYHASDVLETSGWKSMVVSHPHLVAEAYRSLASAQCPFLGPPRKRLKQS
partner: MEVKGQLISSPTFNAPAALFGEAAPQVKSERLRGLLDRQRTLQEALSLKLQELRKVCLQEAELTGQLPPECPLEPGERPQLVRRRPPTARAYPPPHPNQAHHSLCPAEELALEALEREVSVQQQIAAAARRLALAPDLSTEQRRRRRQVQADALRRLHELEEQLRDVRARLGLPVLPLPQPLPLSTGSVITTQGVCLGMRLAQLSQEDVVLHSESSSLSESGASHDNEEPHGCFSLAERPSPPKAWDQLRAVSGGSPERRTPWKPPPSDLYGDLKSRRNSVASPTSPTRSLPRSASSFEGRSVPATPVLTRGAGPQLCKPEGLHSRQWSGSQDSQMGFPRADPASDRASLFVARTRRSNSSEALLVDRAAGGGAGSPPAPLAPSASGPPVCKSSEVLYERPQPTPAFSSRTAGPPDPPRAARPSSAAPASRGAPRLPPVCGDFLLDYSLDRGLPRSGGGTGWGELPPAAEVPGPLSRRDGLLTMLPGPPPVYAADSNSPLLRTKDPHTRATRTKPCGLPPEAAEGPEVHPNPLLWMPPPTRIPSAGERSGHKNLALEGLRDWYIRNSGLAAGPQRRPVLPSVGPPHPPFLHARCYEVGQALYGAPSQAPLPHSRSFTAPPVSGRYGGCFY
B2: Speckle-type POZ protein (Homo sapiens), O43791 (parent)
chain: B1 chain
partner: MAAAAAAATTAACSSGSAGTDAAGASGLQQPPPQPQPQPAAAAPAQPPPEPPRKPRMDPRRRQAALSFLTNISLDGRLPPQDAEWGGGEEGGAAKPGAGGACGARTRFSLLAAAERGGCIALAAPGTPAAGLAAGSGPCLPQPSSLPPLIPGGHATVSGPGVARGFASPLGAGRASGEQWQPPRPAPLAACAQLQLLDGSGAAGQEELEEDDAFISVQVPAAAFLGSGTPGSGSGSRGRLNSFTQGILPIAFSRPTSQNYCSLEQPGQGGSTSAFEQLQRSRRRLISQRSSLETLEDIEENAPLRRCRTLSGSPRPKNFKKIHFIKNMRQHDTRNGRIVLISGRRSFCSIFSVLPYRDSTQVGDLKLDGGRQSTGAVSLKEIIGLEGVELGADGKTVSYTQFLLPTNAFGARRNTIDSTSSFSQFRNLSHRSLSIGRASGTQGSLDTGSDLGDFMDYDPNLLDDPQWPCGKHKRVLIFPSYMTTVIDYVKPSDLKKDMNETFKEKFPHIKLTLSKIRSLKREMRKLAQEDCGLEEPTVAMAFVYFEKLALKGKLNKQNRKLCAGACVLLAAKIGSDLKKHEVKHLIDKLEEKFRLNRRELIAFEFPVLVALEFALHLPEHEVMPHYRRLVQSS

Variants of: B1
Settings: with cc120_human CCDC120, Q96HB5

Row | Variant | effect of a mutation on the interaction
1 | MSRVPSPPPPAEMSSGPVAESWCYTQIKVVKFSYMWTINNFSFCREEMGEVIKSSTFSSGANDKLKWCLRVNPKGLDEESKDYLSLCLLLVSCPKSEVRAKFKFSILNAKGEETKAMESQRAYRFVQGKDWGFKKFIRRDFLLDEANGLLPDDKLTLFCEVSVVQDSVNISGQNTMNMVKVPECRLADELGGLWENSRFTDCCLCVAGQEFQAHKAILAARSPVFSAMFEHEMEESKKNRVEINDVEPEVFKEMMCFIYTGKAPNLDKMADDLLAAADKYALERLKVMCEDALCSNLSVENAAEILILADLHSADQLKTQAVDFINYHASDVLETSGWKSMVVSHPHLVAEAYRSLASAQCPFLGPPRKRLKQS [Y87C] | with no effect

Variants of: B1
Settings: with cc120_human CCDC120, Q96HB5
Remark: another data set of the same source

Row | Variant | effect of a mutation on the interaction
2 | MSRVPSPPPPAEMSSGPVAESWCYTQIKVVKFSYMWTINNFSFCREEMGEVIKSSTFSSGANDKLKWCLRVNPKGLDEESKDYLSLYLLLVSCPKSEVRAKCKFSILNAKGEETKAMESQRAYRFVQGKDWGFKKFIRRDFLLDEANGLLPDDKLTLFCEVSVVQDSVNISGQNTMNMVKVPECRLADELGGLWENSRFTDCCLCVAGQEFQAHKAILAARSPVFSAMFEHEMEESKKNRVEINDVEPEVFKEMMCFIYTGKAPNLDKMADDLLAAADKYALERLKVMCEDALCSNLSVENAAEILILADLHSADQLKTQAVDFINYHASDVLETSGWKSMVVSHPHLVAEAYRSLASAQCPFLGPPRKRLKQS [F102C] | with no effect

Variants of: B1
Settings: with cc120_human CCDC120, Q96HB5
Remark: another data set of the same source

Row | Variant | effect of a mutation on the interaction
3 | MSRVPSPPPPAEMSSGPVAESWCYTQIKVVKFSYMWTINNFSFCREEMGEVIKSSTFSSGANDKLKWCLRVNPKGLDEESKDYLSLYLLLVSCPKSEVRAKFKFSILNAKGEETKAMESQRAYRFVQGKDWGVKKFIRRDFLLDEANGLLPDDKLTLFCEVSVVQDSVNISGQNTMNMVKVPECRLADELGGLWENSRFTDCCLCVAGQEFQAHKAILAARSPVFSAMFEHEMEESKKNRVEINDVEPEVFKEMMCFIYTGKAPNLDKMADDLLAAADKYALERLKVMCEDALCSNLSVENAAEILILADLHSADQLKTQAVDFINYHASDVLETSGWKSMVVSHPHLVAEAYRSLASAQCPFLGPPRKRLKQS [F133V] | with no effect

Variants of: B1
Settings: with cc120_human CCDC120, Q96HB5
Remark: another data set of the same source

Row | Variant | effect of a mutation on the interaction
4 | MSRVPSPPPPAEMSSGPVAESWCYTQIKVVKFSYMWTINNFSFCREEMGEVIKSSTFSSGANDKLKWCLRVNPKGLDEESKDYLSLYLLLVSCPKSEVRAKFKFSILNAKGEETKAMESQRAYRFVQGKDWGLKKFIRRDFLLDEANGLLPDDKLTLFCEVSVVQDSVNISGQNTMNMVKVPECRLADELGGLWENSRFTDCCLCVAGQEFQAHKAILAARSPVFSAMFEHEMEESKKNRVEINDVEPEVFKEMMCFIYTGKAPNLDKMADDLLAAADKYALERLKVMCEDALCSNLSVENAAEILILADLHSADQLKTQAVDFINYHASDVLETSGWKSMVVSHPHLVAEAYRSLASAQCPFLGPPRKRLKQS [F133L] | with no effect

Variants of: B2
Settings: with cabl1_human CABLES1, Q8TDN4

Row | Variant | effect of a mutation on the interaction
5 | MSRVPSPPPPAEMSSGPVAESWCYTQIKVVKFSYMWTINNFSFCREEMGEVIKSSTFSSGANDKLKWCLRVNPKGLDEESKDYLSLYLLLVSCPKSEVRAKFKFSILNAKGEETKAMESQRAYRFVQGKDWGLKKFIRRDFLLDEANGLLPDDKLTLFCEVSVVQDSVNISGQNTMNMVKVPECRLADELGGLWENSRFTDCCLCVAGQEFQAHKAILAARSPVFSAMFEHEMEESKKNRVEINDVEPEVFKEMMCFIYTGKAPNLDKMADDLLAAADKYALERLKVMCEDALCSNLSVENAAEILILADLHSADQLKTQAVDFINYHASDVLETSGWKSMVVSHPHLVAEAYRSLASAQCPFLGPPRKRLKQS [F133L] | with no effect

Variants of: B2
Settings: with cabl1_human CABLES1, Q8TDN4
Remark: another data set of the same source

Row | Variant | effect of a mutation on the interaction
6 | MSRVPSPPPPAEMSSGPVAESWCYTQIKVVKFSYMWTINNFSFCREEMGEVIKSSTFSSGANDKLKWCLRVNPKGLDEESKDYLSLYLLLVSCPKSEVRAKFKFSILNAKGEETKAMESQRAYRFVQGKDWGVKKFIRRDFLLDEANGLLPDDKLTLFCEVSVVQDSVNISGQNTMNMVKVPECRLADELGGLWENSRFTDCCLCVAGQEFQAHKAILAARSPVFSAMFEHEMEESKKNRVEINDVEPEVFKEMMCFIYTGKAPNLDKMADDLLAAADKYALERLKVMCEDALCSNLSVENAAEILILADLHSADQLKTQAVDFINYHASDVLETSGWKSMVVSHPHLVAEAYRSLASAQCPFLGPPRKRLKQS [F133V] | with no effect

Variants of: B2
Settings: with cabl1_human CABLES1, Q8TDN4
Remark: another data set of the same source

Row | Variant | effect of a mutation on the interaction
7 | MSRVPSPPPPAEMSSGPVAESWCYTQIKVVKFSYMWTINNFSFCREEMGEVIKSSTFSSGANDKLKWCLRVNPKGLDEESKDYLSLCLLLVSCPKSEVRAKFKFSILNAKGEETKAMESQRAYRFVQGKDWGFKKFIRRDFLLDEANGLLPDDKLTLFCEVSVVQDSVNISGQNTMNMVKVPECRLADELGGLWENSRFTDCCLCVAGQEFQAHKAILAARSPVFSAMFEHEMEESKKNRVEINDVEPEVFKEMMCFIYTGKAPNLDKMADDLLAAADKYALERLKVMCEDALCSNLSVENAAEILILADLHSADQLKTQAVDFINYHASDVLETSGWKSMVVSHPHLVAEAYRSLASAQCPFLGPPRKRLKQS [Y87C] | with no effect

Variants of: B2
Settings: with cabl1_human CABLES1, Q8TDN4
Remark: another data set of the same source

Row | Variant | effect of a mutation on the interaction
8 | MSRVPSPPPPAEMSSGPVAESWCYTQIKVVKFSYMWTINNFSFCREEMGEVIKSSTFSSGANDKLKWCLRVNPKGLDEESKDYLSLYLLLVSCPKSEVRAKCKFSILNAKGEETKAMESQRAYRFVQGKDWGFKKFIRRDFLLDEANGLLPDDKLTLFCEVSVVQDSVNISGQNTMNMVKVPECRLADELGGLWENSRFTDCCLCVAGQEFQAHKAILAARSPVFSAMFEHEMEESKKNRVEINDVEPEVFKEMMCFIYTGKAPNLDKMADDLLAAADKYALERLKVMCEDALCSNLSVENAAEILILADLHSADQLKTQAVDFINYHASDVLETSGWKSMVVSHPHLVAEAYRSLASAQCPFLGPPRKRLKQS [F102C] | with no effect
